Test results as given in patent publication US8076300B2, “FGF2-binding peptides and uses thereof” (Tecnogen S.p.A., priority 2006, dated 2011).

Legend:
[1] = biological target: T1, FGF2 (Homo sapiens, UniProt P09038); details: cited from earlier work
Target sequence in this assay (P09038 143-288): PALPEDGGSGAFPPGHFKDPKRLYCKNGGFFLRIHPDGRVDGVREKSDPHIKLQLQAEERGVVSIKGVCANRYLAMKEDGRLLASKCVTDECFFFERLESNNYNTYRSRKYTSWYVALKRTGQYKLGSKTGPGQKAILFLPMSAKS

[2] = biological target: T1, FGF2; experiment: Solid phase binding assay, PTX3 proteins on FGF2-coated wells; design: made in house; host or cells: E. coli; details: proteins at 44 nM, 30 minutes at 37° C.
Description: (§1) ELISA microplates were incubated for 16 hours at 4° C. with 100 μl/well of 100 mM NaHCO3, pH 9.6 (coating buffer) containing FGF2 (270 nM). Then, wells were overcoated for 2 hours at room temperature with 5% dry milk in coating buffer. […] Then, wells were sequentially incubated for 1 hour at 37° C. with a rabbit polyclonal anti-PTX3 antibody (1:2000 dilution) that recognizes both PTX3 fragments with similar efficiency in Western blot and ELISA, an anti-rabbit biotinylated antibody (1:2000), and 100 μl of streptavidin-horseredish peroxidase (1:5000, Amersham) for 1 hour at room temperature. Then, 100 μl/well of the chromogen substrate 2,29-azinobis(3-ethylbenzthiazolinesulfonic acid) were added. Absorbance values were read at 405 nm in an automatic ELISA reader. In some experiments, 100-μl aliquots of PBS containing biotin-labeled PTX3 (bPTX3) (22 nM) were incubated for 30 minutes at 37° C. onto FGF2-coated wells with or without competitors. Then, wells were washed, and the amount of bound bPTX3 was evaluated as described^17. Alternatively, synthetic PTX3 peptides were immobilized on ELISA microplate wells (200 μg/well) as described above. Then, FGF2 (80 nM) was added and FGF2 bound to immobilized peptides was assessed by 1 hour incubation at 37° C. with a rabbit polyclonal anti-FGF2 antibody (1:7000) followed by immunocomplex detection as described above.
Target sequence in this assay (P09038 134-288): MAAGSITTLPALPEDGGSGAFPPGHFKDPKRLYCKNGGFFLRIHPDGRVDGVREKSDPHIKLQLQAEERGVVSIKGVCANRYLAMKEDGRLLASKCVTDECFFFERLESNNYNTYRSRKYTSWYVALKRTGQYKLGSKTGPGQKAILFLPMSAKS

[3] = biological target: T1, FGF2; experiment: BIAcore binding assay, FGF2 binding to PTX3 immobilized to a sensorchip; design: made in house; host or cells: FGF2: E. coli; PTX3: Chinese hamster ovary cells
Description: A BIAcore X apparatus (BIAcore Inc, Piscataway, N.J.) was used. Surface plasmon resonance was exploited to measure changes in refractive index caused by the ability of FGF2 to bind to PTX3 immobilized to a BIAcore sensorchip. To this purpose, PTX3 (2.2 μM) was allowed to react with a flow cell of a CM4 sensorchip that was previously activated with 50 μl of a mixture of 0.2 M N-ethyl-N′-(3-dimethylaminopropyl)-carbodiimide hydrochloride and 0.05 M N-hydroxysuccinimide. These experimental conditions allowed the immobilization of 5,000 resonance units (RUs), corresponding to approximately 0.1 pmoles of PTX3. Similar results were obtained for immobilization of gelatin, here used as a negative control and for blank subtraction. Increasing concentrations of FGF2 with or without synthetic PTX3 peptides were then injected in dilution buffer (PBS plus 0.005% surfactant P20, 5.0 μg/mL CaCl2 and MgCl2) over the PTX3 surface for 4 minutes (to allow their association with immobilized PTX3) and then washed until dissociation was observed.
Target sequence in this assay (P09038 134-288): as above

[4] = system: MAE cells; experiment: Cell proliferation assay, retrovirus infected MAE cells stimulated with FGF2; type: cell-based, murine; details: retroviral overexpression in MAE cells, FGF2 0.55 nM, 48 h
From the text: The cDNAs encoding for human PTX3 and for the enhanced green fluorescent protein (EGFP) were obtained as described^17. The cDNAs encoding for the N-terminal fragment PTX3(1-178) (Nterm-PTX3) and the C-terminal fragment PTX3(179-381) fused to the leader sequence for secretion PTX3(1-17) (sCterm-PTX3) were generated from pLX-PTX3^17 by PCR and standard cloning techniques. All cDNAs were cloned in the pBABE retroviral vector thus generating pBABE-PTX3, pBABE-Nterm-PTX3, pBABE-sCterm-PTX3, and pBABE-EGFP that were used to transfect the EcoPack2-293 packaging cells in the presence of Lipofectamin 17. Transduced cells were selected with puromycin (1 μg/ml, Sigma) for 2 weeks. Clones with a viral titer higher than […] were used for further experimentation. Confluent cultures of MAE cells were then incubated for 24 hours with the conditioned medium from pBABE-PTX3, pBABE-Nterm-PTX3, PBABE-sCterm-PTX3, or pBABE-EGFP packaging cells in the presence of polybrene (8 μg/ml, Sigma). Infected cell populations were selected for 7 days with puromycin. […] To assess the levels of transgene protein expression and release by infected cells, cell cultures were grown under serum-free conditions for 2 days. […]
Cell proliferation assay on endothelial cells was performed as described^22. […] After 24 or 48 h, respectively, cells were trypsinized and counted in a Burker chamber.

[5] = biological target: T1, FGF2; experiment: Solid phase binding assay, FGF2 binding to immobilized synthetic PTX3 peptides; design: made in house; host or cells: E. coli; details: peptides 200 μg/well, FGF2 80 nM
Description: as §1
Target sequence in this assay (P09038 134-288): as above

[6] = system: GM7373 cells; experiment: Cell proliferation assay, endothelial GM7373 cells; type: cell-based, bovine; details: FGF2 0.55 nM
Description: Cell proliferation assay on endothelial cells was performed as described^22. Briefly, GM7373 or MAE cells were seeded in 96-well dishes at 75,000 cells/cm^2 or 25,000 cells/cm^2, respectively. After 16 h, cells were incubated in fresh medium containing 0.4% FCS plus FGF2 (0.55 nM) in the absence or in the presence of different antagonists. After 24 or 48 h, respectively, cells were trypsinized and counted in a Burker chamber.

[7] = biological target: T2, FGF2/PTX3 interaction (Homo sapiens, UniProt P09038+P26022); experiment: Solid phase binding assay, biotinylated PTX3 (bPTX3) binding to immobilized FGF2 with competitors; details: bPTX3 22 nM, competitor 10 fold-molar excess (220 nM)
T2 construct: biotinylated PTX3 (bPTX3, 22 nM) in the absence or in the presence of a 10 fold-molar excess of full length PTX3; made in house; host or cells: FGF2: E. coli; PTX3: Chinese hamster ovary cells
T2 sequence (P09038 134-288): as above
T2 sequence (P26022 18-381): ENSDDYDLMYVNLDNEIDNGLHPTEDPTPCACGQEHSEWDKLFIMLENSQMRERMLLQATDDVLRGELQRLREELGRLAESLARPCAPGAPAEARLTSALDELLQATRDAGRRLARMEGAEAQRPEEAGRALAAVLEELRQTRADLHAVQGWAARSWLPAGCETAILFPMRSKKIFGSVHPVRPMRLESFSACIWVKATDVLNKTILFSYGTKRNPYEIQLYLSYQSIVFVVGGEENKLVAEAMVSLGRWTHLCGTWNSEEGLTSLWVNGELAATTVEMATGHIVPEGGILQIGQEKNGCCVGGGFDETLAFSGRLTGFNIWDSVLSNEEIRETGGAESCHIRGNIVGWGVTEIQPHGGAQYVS
Description: ELISA microplates were incubated for 16 hours at 4° C. with 100 μl/well of 100 mM NaHCO3, pH 9.6 (coating buffer) containing FGF2 (270 nM). Then, wells were overcoated for 2 hours at room temperature with 5% dry milk in coating buffer. […] Then, 100 μl/well of the chromogen substrate 2,29-azinobis(3-ethylbenzthiazolinesulfonic acid) were added. Absorbance values were read at 405 nm in an automatic ELISA reader. In some experiments, 100-μl aliquots of PBS containing biotin-labeled PTX3 (bPTX3) (22 nM) were incubated for 30 minutes at 37° C. onto FGF2-coated wells with or without competitors. Then, wells were washed, and the amount of bound bPTX3 was evaluated as described^17. Alternatively, synthetic PTX3 peptides were immobilized on ELISA microplate wells (200 μg/well) as described above. Then, FGF2 (80 nM) was added and FGF2 bound to immobilized peptides was assessed by 1 hour incubation at 37° C. with a rabbit polyclonal anti-FGF2 antibody (1:7000) followed by immunocomplex detection as described above.

Substance | FGF2 binding [1] | binding to FGF2 immobilized to non-tissue culture plastic [2] | FGF2 bound at the end of the injection phase ([3]; FGF2 0.8 μM over immobilized PTX3) | kinetic dissociation constant (koff) of FGF2/PTX3 interaction ([3]; FGF2 0.1 to 1.1 μM over immobilized PTX3) | capacity of infected cells to proliferate in response to exogenous FGF2 [4] | binding of free FGF2 to immobilized peptide or PTX3 [5] | inhibition of FGF2 mitogenic activity by conditioned medium of infected MAE cells ([6]; 24 h) | inhibition of mitogenic activity exerted by FGF2 ([6]; peptides 66 μM, PTX3 220 nM) | prevention of bPTX3 binding to immobilized FGF2 [7] | prevention of bPTX3 binding to immobilized FGF2 ([7]; listed as full length PTX3)
CRP: classical short-pentraxin C-reactive protein | inefficient FGF2 binders |  |  |  |  |  |  |  |  | 
SAP: classical short-pentraxin serum amyloid P component | inefficient FGF2 binders |  |  |  |  |  |  |  |  | 
PTX3: Human recombinant PTX3 (swiss-prot P26022) expressed in Chinese hamster ovary cells; long-pentraxin |  | showed the capacity to bind FGF2 | 350-400 RU | 6e-05 s⁻¹ | significant decrease | binds | significant inhibition | inhibit | prevents the capacity of bPTX3 to bind immobilized FGF2 | prevented the binding
